Data on one molecule can be found in patent publication US20220305135A1 (UNIVERSITY OF CHICAGO, published 2022).

Assay [1] deals with T1, extra domain A (EDA) of fibronectin.
T1 chain: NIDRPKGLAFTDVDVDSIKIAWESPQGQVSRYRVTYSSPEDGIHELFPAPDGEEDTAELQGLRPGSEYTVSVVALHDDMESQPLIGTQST
Briefly: ELISA, EDA coated on plate, Fab titrated, anti-human IgG-HRP detection; apparent Kd by one-site nonlinear regression.

The target is the same in assay [2]. In words: ELISA on plates coated with 10 µg/mL EDA, detection with HRP anti-human IgG, absorbance at 450 nm [panel C]. (In general: ELISA stands for enzyme-linked immunosorbent assay.)

B1: Human anti-EDA Fab (Fab, V domains shown)
VH: EVQLLESGGGLVQPGGSLRLSCAASGFTFSVMKMSWVRQAPGKGLEWVSAISGSGGSTYYADSVKGRFTISRDNSKNTLYLQMNSLRAEDTAVYYCAKSTHLYLFDYWGQGTLVTVSS
VL: EIVLTQSPGTLSLSPGERATLSCRASQSVSNAFLAWYQQKPGQAPRLLIYGASSRATGIPDRFSGSGSGTDFTLTISRLEPEDFAVYYCQQMRGRPPTFGQGTKVEIKR
notes: Made recombinantly in HEK-293F cells
On to B1, for which the Kd in assay [1] worked out at 50.9 nM. Also, the EC50 (read off the curve) (usually the concentration giving half of the maximal effect) in assay [2] is roughly 80 nM.
